Here are results for five proteins from publication PMC9918532.

Data set [1] can be described thus: immunoblot of endogenous YTHDF2, hepatoma cells. As to conditions: control: untreated / control shRNA.
A short description of data set [2]: nuclear/cytosolic fractionation and immunofluorescence.
Data set [3] in a line: HA-Ub in-cell ubiquitination, anti-HA and anti-K48 blot. As to conditions: glycan lost; control: untreated / control shRNA.
Data set [4] in a line: CHX chase, Flag-YTHDF2 in HepG2-HBV1.3. As to conditions: glycan lost; control: control shRNA.
Data set [5] can be described thus: CHX chase, endogenous YTHDF2 in HepAD38. As to conditions: glycan lost; control: control shRNA.
Data set [6] is described as follows: CHX chase, HepG2-HBV1.3-shYTHDF2. As to conditions: glycan gained; control: untreated Flag-YTHDF2-WT.
Data set [7] is described as follows: HA-Ub in-cell ubiquitination, Flag IP, MG132. The conditions noted are these: glycan lost; control: YTHDF2-WT.
Data set [8] in a line: CHX chase, HepG2-HBV1.3-shYTHDF2, anti-Flag blot. The conditions noted are these: glycan lost; control: YTHDF2-WT.
Data set [9] is described as follows: actinomycin D chase, RT-qPCR, HepG2-HBV1.3-shYTHDF2. The conditions noted are these: glycan lost; control: YTHDF2-WT. Background: Quantitative PCR measures a nucleic acid by following its amplification.
Data set [10] in a line: in vitro ubiquitination with His-OGT and UDP-GlcNAc. As to conditions: glycan lost; control: YTHDF2-WT.

B1: YTHDF2: OSMI-1 (protein)
parent chain: MSASSLLEQRPKGQGNKVQNGSVHQKDGLNDDDFEPYLSPQARPNNAYTAMSDSYLPSYYSPSIGFSYSLGEAAWSTGGDTAMPYLTSYGQLSNGEPHFLPDAMFGQPGALGSTPFLGQHGFNFFPSGIDFSAWGNNSSQGQSTQSSGYSSNYAYAPSSLGGAMIDGQSAFANETLNKAPGMNTIDQGMAALKLGSTEVASNVPKVVGSAVGSGSITSNIVASNSLPPATIAPPKPASWADIASKPAKQQPKLKTKNGIAGSSLPPPPIKHNMDIGTWDNKGPVAKAPSQALVQNIGQPTQGSPQPVGQQANNSPPVAQASVGQQTQPLPPPPPQPAQLSVQQQAAQPTRWVAPRNRGSGFGHNGVDGNGVGQSQAGSGSTPSEPHPVLEKLRSINNYNPKDFDWNLKHGRVFIIKSYSEDDIHRSIKYNIWCSTEHGNKRLDAAYRSMNGKGPVYLLFSVNGSGHFCGVAEMKSAVDYNTCAGVWSQDKWKGRFDVRWIFVKDVPNSQLRHIRLENNENKPVTNSRDTQEVPLEKAKQVLKIIASYKHTTSIFDDFSHYEKRQEEEESVKKERQGRGK
As for B1, the expression_or_secretion result in data set [1] (glycan lost) is “decreases”. Besides, the localisation_or_trafficking result in data set [2] (glycan lost, control: untreated) is given as “no change”. Also, the “other: ubiquitination” value in data set [3] is recorded as “increases”.

B2: YTHDF2: shOGT (protein)
parent chain: B1 parent chain
With B2, the degradation_or_half_life result in data set [4] and in data set [5] was “decreases” each time. The “other: ubiquitination” value in [3] was “increases”.

B3: YTHDF2: TMG (protein)
parent chain: B1 parent chain
As to B3, the degradation_or_half_life result in [6] is given as “increases”. Besides, the expression_or_secretion entry in data set [1] (glycan gained) is “increases”. Also, in [2] (glycan gained, control: untreated), the localisation_or_trafficking entry is given as “no change”.

B4: YTHDF2: S263A (protein)
parent chain: B1 parent chain
Consider B4, for which the “other: ubiquitination” value in data set [7] and in [10] was “increases” each time. Also, the degradation_or_half_life result in data set [8] is “decreases”. For the same protein, the “other: stabilisation of target mRNA” value in data set [9] is listed as “decreases”. Further, the localisation_or_trafficking entry in data set [2] (glycan lost, control: YTHDF2-WT) is reported as “no change”.

B5: YTHDF2: OGT knockdown (protein)
parent chain: B1 parent chain
As for B5, the expression_or_secretion result in data set [1] (glycan lost) is recorded as “decreases”.
